Experimental data reported in US11155602B2, “Polypeptides targeting HIV fusion” (priority 2015, dated 2021).
Residue numbers refer to the chain shown, from its start.

B1: 127 (protein)
chain: MGHHHHHHGGVSDVPRDLEVVAATPTSLLISWQYKVHPYRYYRITYGETGGNSPVQEFTVPSVLSSAQISGLKPGVDYTITVYAVTYGIESSPISINYRTPGG
modifications: Adnectin
B2: 128 (protein)
chain: B1 chain with Q33E, Q68E, E90D
modifications: Adnectin
B3: 129 (protein)
chain: MGVSDVPRDLEVVAATPTSLLISWEYKVHPYRYYRITYGETGGNSPVQEFTVPSVLSSAEISGLKPGVDYTITVYAVTYGIDSPPISINYRTEIDKPSQHHHHHH
modifications: Adnectin
B4: 115 (protein)
chain: B3 chain with H29N, P30N, S58T, E60T, I81V, D82H, P84S
modifications: Adnectin
B5: 249 (protein)
chain: MGHHHHHHGGSVSDVPRDLEVVAATPTSLLISWEYKVHPYRYYRITYGETGGNSPVQEFTVPSVLSSATLNGLKPGVDYTITVYAVTYGDDSAPISINYRTEID
modifications: Adnectin
B6: 252 (protein)
chain: B5 chain with H38A, P39H, Y40R, S67T, L70I, N71S
modifications: Adnectin
B7: 293 (protein)
chain: B5 chain with S67T, N71R
modifications: Adnectin
B8: 295 (protein)
chain: B5 chain with H38A, P39A, S67T, L70I, N71S
modifications: Adnectin
B9: 283 (protein)
chain: B5 chain with S67T, L70I, N71S, Y88D
modifications: Adnectin
B10: 250 (protein)
chain: B5 chain with T69K, L70I, N71S
modifications: Adnectin
B11: 273 (protein)
chain: B5 chain with K36E, S67T, L70I, N71S
modifications: Adnectin
B12: 259 (protein)
chain: B5 chain with S67T, T69K, L70I, N71S
modifications: Adnectin
B13: 287 (protein)
chain: B5 chain with H38A, P39T, Y40W, S67T, L70I, N71S
modifications: Adnectin
B14: 254 (protein)
chain: B5 chain with H38D, P39S, S67T, L70I, N71S
modifications: Adnectin
B15: 260 (protein)
chain: B5 chain with T60R, S67T, L70I, N71S
modifications: Adnectin
B16: 272 (protein)
chain: B5 chain with H38D, P39T, S67T, L70I, N71S
modifications: Adnectin
B17: 288 (protein)
chain: B5 chain with P26T, H38D, P39Y, Y40H, S67T, L70I, N71S
modifications: Adnectin
B18: 131 (protein)
chain: B5 chain with S67T, L70I, N71S, D91L
modifications: Adnectin
B19: 286 (protein)
chain: B5 chain with H38A, P39A, Y40W, S67T, L70I, N71S
modifications: Adnectin
B20: 280 (protein)
chain: B5 chain with H38D, P39Y, Y40G, S67T, L70I, N71S
modifications: Adnectin
B21: 269 (protein)
chain: B5 chain with E58A, S67T, L70I, N71S
modifications: Adnectin
B22: 278 (protein)
chain: B5 chain with H38A, P39R, Y40W, S67T, L70I, N71S
modifications: Adnectin
B23: 270 (protein)
chain: B5 chain with H38A, S67T, L70I, N71S
modifications: Adnectin
B24: 281 (protein)
chain: B5 chain with E34K, K36G, S67T, L70I, N71S
modifications: Adnectin
B25: 291 (protein)
chain: B5 chain with S67T, L70I, N71S, Y88G
modifications: Adnectin
B26: 274 (protein)
chain: B5 chain with K36R, S67T, L70I, N71S
modifications: Adnectin
B27: 256 (protein)
chain: B5 chain with S67T, L70I, N71S, D91A
modifications: Adnectin
B28: 261 (protein)
chain: B5 chain with H38A, Y40W, S67T, L70I, N71S
modifications: Adnectin
B29: 251 (protein)
chain: B5 chain with T60N, S67T, L70I, N71S
modifications: Adnectin
B30: 285 (protein)
chain: B5 chain with N71R
modifications: Adnectin
B31: 294 (protein)
chain: B5 chain with L70I, N71S
modifications: Adnectin
B32: 282 (protein)
chain: B5 chain with K36S, S67T, L70I, N71S
modifications: Adnectin
B33: 277 (protein)
chain: B5 chain with E58D, S67T, L70I, N71S
modifications: Adnectin
B34: 130 (protein)
chain: B5 chain with K36N, P39Y, Y40D, S67T, L70I, N71S, Y88D, D90V, D91H, A93S
modifications: Adnectin
B35: 279 (protein)
chain: B5 chain with H38D, P39H, Y40Q, S67T, L70I, N71S
modifications: Adnectin
B36: 265 (protein)
chain: B5 chain with S67T, L70I, N71S, D90A
modifications: Adnectin
B37: 275 (protein)
chain: B5 chain with E58S, S67T, L70I, N71S, D90A
modifications: Adnectin
B38: 257 (protein)
chain: B5 chain with S67T, L70I, N71S, Y88N
modifications: Adnectin
B39: 266 (protein)
chain: B5 chain with S67T, L70I, N71S, Y88R
modifications: Adnectin
B40: 276 (protein)
chain: B5 chain with S67T, L70I, N71R
modifications: Adnectin
B41: 255 (protein)
chain: B5 chain with S67T, L70I, N71S
modifications: Adnectin
B42: 284 (protein)
chain: B5 chain with S67T, L70I, N71S, Y88S
modifications: Adnectin
B43: 267 (protein)
chain: B5 chain with E58D, S67T, L70I, N71R
modifications: Adnectin
B44: 253 (protein)
chain: B5 chain with H38D, P39A, S67T, L70I, N71S
modifications: Adnectin
B45: 258 (protein)
chain: B5 chain with L70I, N71R
modifications: Adnectin
B46: 271 (protein)
chain: B5 chain with H38D, P39G, S67T, L70I, N71S
modifications: Adnectin
B47: 289 (protein)
chain: B5 chain with K36G, S67T, L70I, N71S
modifications: Adnectin
B48: 263 (protein)
chain: B5 chain with H38D, P39T, Y40W, S67T, L70I, N71S
modifications: Adnectin
B49: 292 (protein)
chain: B5 chain with S67T, L70I, N71H
modifications: Adnectin
B50: 296 (protein)
chain: B5 chain with H38A, P39T, S67T, L70I, N71S
modifications: Adnectin
B51: 262 (protein)
chain: B5 chain with H38D, P39G, Y40W, S67T, L70I, N71S
modifications: Adnectin

Each molecule was assayed on NL-Rluc virus (assay: Combinectin potency assay: antiviral EC50, NL-Rluc virus in MT-2 cells, luciferase readout). Settings: Anti-N17 Adnectin, Table 3.
Assay type: cell-based, HIV-1
How it was run: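 Peptides, serially diluted threefold over 11 points in triplicate, were exposed for 4–5 days to MT-2 cells preinfected 1 h with NL-Rluc virus (MOI 0.01). Replication read out as Renilla luciferase signal, with EC50 derived against untreated infected controls.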

For B1, which EC50 is on record?
The EC50 was 9 nM.

B2 was tested. Which EC50 did it give?
The EC50 was 18 nM.

Which EC50 does the source give for B3 here?
Its EC50 is 11 nM.

B4 was tested. Which EC50 did it give?
Its EC50 is 130 nM.

With B5 as the molecule, how does the EC50 read?
The EC50 was 83 nM.

For B6, which EC50 is on record?
The EC50 was greater than 1000 nM.

With B7 as the molecule, how does the EC50 read?
The EC50 was greater than 1000 nM.

How did the EC50 turn out when B8 was run?
The EC50 was greater than 1000 nM.

B9 was tested. Which EC50 did it give?
The EC50 was greater than 1000 nM.

With B10 as the molecule, how does the EC50 read?
Its EC50 is 218 nM.

B11 was tested. Which EC50 did it give?
Its EC50 is greater than 1000 nM.

How did the EC50 turn out when B12 was run?
Its EC50 is 135 nM.

With B13 as the molecule, how does the EC50 read?
The EC50 was greater than 1000 nM.

For B14, which EC50 is on record?
Its EC50 is greater than 1000 nM.

B15 was tested. Which EC50 did it give?
The EC50 was 188 nM.

B16 was tested. Which EC50 did it give?
Its EC50 is greater than 1000 nM.

Which EC50 does the source give for B17 here?
Its EC50 is greater than 1000 nM.

For B18, which EC50 is on record?
Its EC50 is 5 nM.

With B19 as the molecule, how does the EC50 read?
The EC50 was greater than 1000 nM.

How did the EC50 turn out when B20 was run?
The EC50 was greater than 1000 nM.

B21 was tested. Which EC50 did it give?
The EC50 was 184 nM.

Which EC50 does the source give for B22 here?
The EC50 was greater than 1000 nM.

How did the EC50 turn out when B23 was run?
Its EC50 is greater than 1000 nM.

Which EC50 does the source give for B24 here?
The EC50 was greater than 1000 nM.

B25 was tested. Which EC50 did it give?
The EC50 was greater than 1000 nM.

For B26, which EC50 is on record?
Its EC50 is 115 nM.

For B27, which EC50 is on record?
Its EC50 is 170 nM.

How did the EC50 turn out when B28 was run?
Its EC50 is greater than 1000 nM.

B29 was tested. Which EC50 did it give?
The EC50 was 186 nM.

Which EC50 does the source give for B30 here?
The EC50 was 397 nM.

For B31, which EC50 is on record?
Its EC50 is 101 nM.

How did the EC50 turn out when B32 was run?
Its EC50 is 56 nM.

With B33 as the molecule, how does the EC50 read?
The EC50 was greater than 1000 nM.

Which EC50 does the source give for B34 here?
The EC50 was 42 nM.

For B35, which EC50 is on record?
The EC50 was greater than 1000 nM.

With B36 as the molecule, how does the EC50 read?
The EC50 was 63 nM.

For B37, which EC50 is on record?
Its EC50 is 180 nM.

For B38, which EC50 is on record?
Its EC50 is greater than 1000 nM.

Which EC50 does the source give for B39 here?
The EC50 was greater than 1000 nM.

For B40, which EC50 is on record?
The EC50 was 16 nM.

B41 was tested. Which EC50 did it give?
Its EC50 is 136 nM.

B42 was tested. Which EC50 did it give?
Its EC50 is greater than 1000 nM.

With B43 as the molecule, how does the EC50 read?
The EC50 was greater than 1000 nM.

How did the EC50 turn out when B44 was run?
The EC50 was greater than 1000 nM.

How did the EC50 turn out when B45 was run?
Its EC50 is 195 nM.

For B46, which EC50 is on record?
The EC50 was greater than 1000 nM.

With B47 as the molecule, how does the EC50 read?
Its EC50 is greater than 1000 nM.

B48 was tested. Which EC50 did it give?
Its EC50 is greater than 1000 nM.

For B49, which EC50 is on record?
Its EC50 is 52 nM.

How did the EC50 turn out when B50 was run?
Its EC50 is greater than 1000 nM.

How did the EC50 turn out when B51 was run?
Its EC50 is greater than 1000 nM.
